Like-named read-outs stand apart in the source and are kept apart here. Values belong to the binder of their own block, whether it stands above or below them.
What was measured:
[1] = biological target: T1, ErbB3 receptor, wild type full length, on cells (MALME-3M, ADRr/AdrR, CHO K1 transfectants) (human, UniProt P21860 20-1342); assay: flow cytometry, biotinylated heregulin EGF + streptavidin-PE; cells MALME3 according to the sheet's title and legend paragraph 42 (Example 10 names ADRr cells)
T1 construct: whole, on cells; also called HER3
Method: Cells were then washed twice with 500 μl BD stain buffer and incubated with 100 μl of a 1:200 dilution of streptavidin-PE (PE=phycoerythrin) (Invitrogen) in BD stain buffer for 45 minutes. Finally, cells were washed twice, resuspended in 300 μl of BD stain buffer and analyzed in a FACScalibur flow cytometer.

[2] = biological target: T2, ErbB3 as used in the surface plasmon resonance (Flexchip) and KinExA assays (human, UniProt P21860 20-643, limits assumed); assay: surface plasmon resonance (Flexchip assay); Flexchip SPR
[3] = biological target: T1, ErbB3 receptor, wild type full length, …; assay: cell binding assay, flow cytometry on MALME-3M cells, one-site binding fit
Method: (§1) The concentrations of the diluted antibody ranged from 200 nM to 0.4 nM.
(§2) Aliquoted cells in the 96-well plate were incubated with the protein dilutions for 30 minutes at room temperature on a platform shaker and washed 3 times with 300 μl BD stain buffer. […] Finally, cells were washed twice, pelleted and resuspended in 250 μl BD stain buffer+0.5 μg/ml propidium iodide. Analysis of 10,000 cells was done in a FACScalibur flow cytometer using the FL4 channel. MFI values and the corresponding concentrations of the anti-ErbB3-antibodies were plotted on the y-axis and x-axis, respectively. The KD of the molecule was determined by GraphPad Prism using the one-site binding model for a non-linear regression curve.
(§3) The KD value was calculated based on the formula Y=Bmax*X/KD+X (Bmax=fluorescence at saturation. X=antibody concentration. Y=degree of binding).

[4] = biological target: T1, ErbB3 receptor, wild type full length, …; assay: flow cytometry on MALME-3M cells, Alexa 647 goat anti-human IgG, one-site binding fit
Method: as §1, §2, §3

[5] = biological target: T1, ErbB3 receptor, wild type full length, …; assay: flow cytometry on MALME-3M cells (ErbB1 negative, ErbB3 positive), biotinylated BTC + streptavidin-PE
Method: (§4) Cells were then washed twice with 500 μl BD stain buffer and incubated with 100 μl of a 1:200 dilution of streptavidin-PE (PE=phycoerythrin) (Invitrogen) in BD stain buffer for 45 minutes. Finally, cells were washed twice, resuspended in 300 μl of BD stain buffer and analyzed in a FACScalibur flow cytometer. […] To assess background staining from the streptavidin-PE conjugate, cells were incubated with 100 μl of a 1:200 dilution of streptavidin-PE only for 45 minutes.

[6] = biological target: T3, EGFR (ErbB1) on ADRr cells (human, UniProt P00533 25-1210); assay: flow cytometry on ADRr cells, biotinylated BTC + streptavidin-PE; BTC concentration not printed on the sheet (legend paragraph 39 names 10 nM)
T3 construct: whole, on cells
Method: as §4

[7] = biological target: T1, ErbB3 receptor, wild type full length, …; assay: flow cytometry on MALME-3M cells; Fab at about 500 nM; goat anti-human Alexa 647 secondary antibody
[8] = biological target: T1, ErbB3 receptor, wild type full length, …; assay: cell-based or functional assay
[9] = biological target: T2, ErbB3 as used in the surface plasmon …; assay: Kinetic Exclusion Assay (KinExA); KinExA
[10] = biological target: T2, ErbB3 as used in the surface plasmon …; assay: Kinetic Exclusion Assay (KinExA); KinExA, not Flexchip SPR
[11] = biological target: T2, ErbB3 as used in the surface plasmon …; assay: surface plasmon resonance (Flexchip assay); Flexchip SPR, not KinExA
[12] = biological target: T1, ErbB3 receptor, wild type full length, …; assay: flow cytometry on MALME-3M cells, Alexa 647 goat anti-human IgG, one-site binding fit; remark: listed apart in the source
Method: as §1, §2, §3

[13] = biological target: T4, full-length ErbB3 D93A mutant on CHO K1 cells (human, UniProt P21860 20-1342); assay: FACS on CHO K1 cells stably expressing full-length ErbB3 D93A; Ab #6 directly labelled with Alexa 488 (FL1)
T4 construct: whole, on cells
From the text: (§5) CHO K1 cells expressing wild type full-length ErbB3 served as a positive control.

[14] = biological target: T5, full-length ErbB3 L102A mutant on CHO K1 cells (human, UniProt P21860 20-1342); assay: FACS on CHO K1 cells stably expressing full-length ErbB3 L102A; Ab #6 directly labelled with Alexa 488 (FL1)
T5 construct: whole, on cells; Numbering as for m15
From the text: as §5

[15] = biological target: T6, full-length ErbB3 Y104A mutant on CHO K1 cells (human, UniProt P21860 20-1342); assay: FACS on CHO K1 cells stably expressing full-length ErbB3 Y104A; Ab #6 directly labelled with Alexa 488 (FL1)
T6 construct: whole, on cells; Numbering as for m15
From the text: as §5

[16] = biological target: recombinant human EGFR (coated on ELISA plate) (human, UniProt P00533 25-645, limits assumed); assay: ELISA on plate-coated protein, HRP anti-human IgG, chemiluminescence
Method: (§6) Specifically, 96-well Nunc Maxisorb plates were coated with 50 μl of 5 μg/ml protein (recombinant human ErbB3, recombinant human EGFR or unrelated protein (BSA)) and incubated overnight at room temperature. The next morning, plates were washed 3 times with 1000 μl/well of PBST (0.05% Tween-20) in the BioTek plate washer. The wells were blocked for 1 hr at room temperature with 2% BSA in PBS. The plates were washed 3 times with 1000 μl/well of PBST (0.05% Tween-20) in the BioTek plate washer. […] All samples were run in duplicate and incubated for 2 hrs at 4° C. on a plate shaker. The plates were washed plates 3 times with 1000 μl/well of PBST (0.05% Tween-20) in the BioTek plate washer. 50 μl of human IgG detection antibody (HRP conjugated (Bethyl Inc; 1:75000 dilution in 2% BSA, PBST)) was added and the plates were incubated for 1 hr at room temperature. The plates were washed plate 3 times with 1000 μl/well of PBST (0.05% Tween-20) in the BioTek plate washer. 50 μL of Supersignal Pico ELISA substrate was added and the plate was read on the Fusion plate reader. The data was analyzed using the EXCEL program. Duplicate samples were averaged and the error bars represent the standard deviation between the two replicates.

[17] = biological target: bovine serum albumin (BSA), unrelated protein control (bovine, UniProt P02769 25-607); assay: as above
Method: as §6

[18] = biological target: T7, TGF-α (control in ELISA) (UniProt P01135 40-89); assay: as above
T7 construct: also called transforming growth factor-α
Method: as §6

bovine serum albumin (BSA), unrelated protein control, sequence (P02769 25-607 limits assumed): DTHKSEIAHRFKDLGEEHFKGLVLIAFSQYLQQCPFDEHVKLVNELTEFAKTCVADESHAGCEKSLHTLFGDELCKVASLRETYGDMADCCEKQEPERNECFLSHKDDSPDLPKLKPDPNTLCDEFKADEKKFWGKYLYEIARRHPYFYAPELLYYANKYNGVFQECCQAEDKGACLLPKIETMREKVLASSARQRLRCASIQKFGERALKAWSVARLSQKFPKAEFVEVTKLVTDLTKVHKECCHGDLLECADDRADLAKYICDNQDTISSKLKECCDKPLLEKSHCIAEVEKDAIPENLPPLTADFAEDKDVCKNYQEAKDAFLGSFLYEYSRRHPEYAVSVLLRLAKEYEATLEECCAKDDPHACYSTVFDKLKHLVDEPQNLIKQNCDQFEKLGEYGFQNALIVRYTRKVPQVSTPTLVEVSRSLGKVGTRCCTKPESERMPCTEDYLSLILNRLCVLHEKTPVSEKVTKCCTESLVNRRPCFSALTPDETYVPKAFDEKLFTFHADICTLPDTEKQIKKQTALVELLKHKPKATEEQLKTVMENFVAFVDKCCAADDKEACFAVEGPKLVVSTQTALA

B1: biotinylated heregulin EGF (ligand, UniProt Q02297-6 177-241, looked up)
chain: SHLVKCAEKEKTFCVNGGECFMVKDLSNPSRYLCKCPNEFTGDRCQNYVMASFYKHLGIEFMEAE
modifications: also: biotinylated, site not given here
notes: domain: heregulin EGF
binding result [1]: binds

B2: Antibody #3 (Ab #3), human anti-ErbB3 antibody (antibody, V domains shown)
VH: EVQLLESGGGLVQPGGSLRLSCAASGFTFSAYNMRWVRQAPGKGLEWVSVIYPSGGATRYADSVKGRFTISRDNSKNTLYLQMNSLRAEDTAVYYCARGYYYYGMDVWGQGTLVTVSS
VL: QSVLTQPPSASGTPGQRVTISCSGSDSNIGRNYIYWYQQFPGTAPKLLIYRNNQRPSGVPDRISGSKSGTSASLAISGLRSEDEAEYHCGTWDDSLSGPVFGGGTKLTVL
Kd [2]: ~8 nM | Kd [3]: ~1.3 nM | EC50 (read off the curve) [4]: ~8 nM

B5: Antibody #6 (Ab #6), human anti-ErbB3 antibody (antibody, V domains shown)
VH: EVQLLESGGGLVQPGGSLRLSCAASGFTFSHYVMAWVRQAPGKGLEWVSSISSSGGWTLYADSVKGRFTISRDNSKNTLYLQMNSLRAEDTAVYYCTRGLKMATIFDYWGQGTLVTVSS
VL: QSALTQPASVSGSPGQSITISCTGTSSDVGSYNVVSWYQQHPGKAPKLIIYEVSQRPSGVSNRFSGSKSGNTASLTISGLQTEDEADYYCCSYAGSSIFVIFGGGTKVTVL
notes: also called antibody number 6; MM121
IC50 of inhibition of BTC-induced ErbB3 phosphorylation (ELISA, ADRr cells) [8]: 5.9 nM | IC50 of inhibition of HRG1-beta-induced ErbB3 phosphorylation (ELISA, ADRr cells) [8]: 2.4 nM | koff [9]: 0.00011 s⁻¹ | kon [9]: 143000 M⁻¹ s⁻¹ | Kd [10]: 0.769 nM | Kd [11]: ~4 nM | Kd [3]: ~4 nM | EC50 (read off the curve) [12]: 1 to 2 nM | binding result [13]: no binding | binding result [14]: no binding | binding result [15]: no binding

More lines, now with the values ahead:

binding result [5]: no binding (tested: 500 nM) | binding result [6]: binds
B3: betacellulin (BTC) (ligand, UniProt P35070 32-111, looked up)
chain: DGNSTRSPETNGLLCGDPEENCAATTTQSKRKGHFSRCPKQYKHYCIKGRCRFVVAEQTPSCVCDEGYIGARCERVDLFY
modifications: biotinylated (Example 7)
notes: also called biotinylated BTC

binding result [7]: binds
B4: Ab#14 (Fab, V domains shown)
VH: EVQLLESGGGLVQPGGSLRLSCAASGFTFSAYGMGWVRQAPGKGLEWVSYISPSGGHTKYADSVKGRFTISRDNSKNTLYLQMNSLRAEDTAVYYCAKVLETGLLVDAFDIWGQGTMVTVSS
VL: QYELTQPPSVSVYPGQTASITCSGDQLGSKFVSWYQQRPGQSPVLVMYKDKRRPSEIPERFSGSNSGNTATLTISGTQAIDEADYYCQAWDSSTYVFGTGTKVTVL
notes: also called Fab form of Ab #14; MM 121-14

binding result [16]: no binding (tested: 1000 nM) | binding result [17]: no binding (tested: 1000 nM) | binding result [18]: no binding (tested: 1000 nM)
B6: Ab #6, IgG2 isotype (antibody, V domains shown)
VH: EVQLLESGGGLVQPGGSLRLSCAASGFTFSHYVMAWVRQAPGKGLEWVSSISSSGGWTLYADSVKGRFTISRDNSKNTLYLQMNSLRAEDTAVYYCTRGLKMATIFDYWGQGTLVTVSS
VL: QSALTQPASVSGSPGQSITISCTGTSSDVGSYNVVSWYQQHPGKAPKLIIYEVSQRPSGVSNRFSGSKSGNTASLTISGLQTEDEADYYCCSYAGSSIFVIFGGGTKVTVL
notes: Human IgG2; also called IgG2 isotype of Ab #6
